Reference: publication doi:10.1101/2023.01.07.523125

Molecular target: human Slack channel (Slo2.2, KCNT1) (human) (UniProt Q5JUK3)
Assay: cryo-EM structure

stoichiometry N: 4
Substance: human Slack channel (Slo2.2, KCNT1) (from UniProt Q5JUK3 1-1230) (natural protein)
